For assay [1], the target named is T1, wild-type human Nectin-4 on the CHO huNectin4 Cl.3C8 cell line (human, UniProt Q96NY8 32-510).
T1 construct: also called whole Nectin-4 protein; huNectin4 CI.3C8
T1 sequence: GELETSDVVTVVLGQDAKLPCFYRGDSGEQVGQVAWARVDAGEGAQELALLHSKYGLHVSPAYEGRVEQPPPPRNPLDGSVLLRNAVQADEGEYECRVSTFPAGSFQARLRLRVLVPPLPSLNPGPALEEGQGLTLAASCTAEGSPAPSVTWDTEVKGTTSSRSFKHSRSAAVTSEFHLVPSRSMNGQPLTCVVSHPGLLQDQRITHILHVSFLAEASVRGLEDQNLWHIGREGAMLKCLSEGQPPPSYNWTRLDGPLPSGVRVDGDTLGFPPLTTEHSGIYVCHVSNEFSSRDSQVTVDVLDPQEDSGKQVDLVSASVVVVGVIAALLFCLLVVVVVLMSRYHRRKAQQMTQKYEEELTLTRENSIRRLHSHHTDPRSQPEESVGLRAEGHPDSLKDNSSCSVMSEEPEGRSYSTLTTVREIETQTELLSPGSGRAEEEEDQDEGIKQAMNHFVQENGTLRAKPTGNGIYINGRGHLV
In words: flow cytometry on wild-type human Nectin-4 cell line. Background: A flow cytometer gives signals particle by particle.

A further assay deals with T2, human PVR on CHO cells (human, UniProt P15151 28-417).
T2 construct: also called PVR (Nectin-5)
T2 sequence: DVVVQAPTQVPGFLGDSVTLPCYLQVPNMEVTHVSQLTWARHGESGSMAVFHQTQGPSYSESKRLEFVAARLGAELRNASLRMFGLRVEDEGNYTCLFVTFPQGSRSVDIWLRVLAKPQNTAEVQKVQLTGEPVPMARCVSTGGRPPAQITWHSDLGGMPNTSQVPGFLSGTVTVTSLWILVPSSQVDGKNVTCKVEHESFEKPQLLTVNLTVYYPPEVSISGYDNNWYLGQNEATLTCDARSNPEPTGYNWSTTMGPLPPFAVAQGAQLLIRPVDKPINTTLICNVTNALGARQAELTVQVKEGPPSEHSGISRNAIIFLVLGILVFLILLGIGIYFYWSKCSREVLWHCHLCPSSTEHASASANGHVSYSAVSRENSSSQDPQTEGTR
Description: flow cytometry on CHO cells expressing human PVR. Here is the method: (§1) Anti-Nectin-4 antibodies were tested by flow cytometry for binding to different CHO cell lines made to express respectively the human Nectin 1, Nectin 2, Nectin 3 and PVR proteins. The expression of each cell lines was controlled and validated with known respectively the anti-human Nectin1, anti-human Nectin2, anti-human Nectin3 and anti-human PVR antibodies. The mature amino acid sequence of the proteins expressed by the cells were as follows:
(§2) Nectin 1, Nectin 2, Nectin 3 and PVR proteins as in Example 12. […] Epitope mapping was carried out by assessing competition for binding to Nectin-4 by SPR as in Example 14.

A further assay concerns the target T3, human Nectin-4 Mutant 3 (human, UniProt Q96NY8 32-510).
T3 construct: Expressed on transfected HEK-293T cells; also called A76S/Q77R/E78A/S91N
T3 chain: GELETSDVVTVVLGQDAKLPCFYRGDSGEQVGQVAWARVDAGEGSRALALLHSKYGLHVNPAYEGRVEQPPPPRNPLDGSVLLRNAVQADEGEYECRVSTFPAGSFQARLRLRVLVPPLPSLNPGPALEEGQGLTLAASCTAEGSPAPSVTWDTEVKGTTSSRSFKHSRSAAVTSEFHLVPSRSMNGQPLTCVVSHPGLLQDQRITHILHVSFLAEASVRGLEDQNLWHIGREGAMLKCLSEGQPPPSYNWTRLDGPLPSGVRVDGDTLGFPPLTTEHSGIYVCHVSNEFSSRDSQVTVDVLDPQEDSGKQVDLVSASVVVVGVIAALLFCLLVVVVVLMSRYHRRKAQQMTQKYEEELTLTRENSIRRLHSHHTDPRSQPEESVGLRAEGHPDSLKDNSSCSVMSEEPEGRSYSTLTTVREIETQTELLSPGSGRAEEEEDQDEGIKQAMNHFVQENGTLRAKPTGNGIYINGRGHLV
Description: binding to HEK-293T cells transfected with the Nectin-4 mutant.

The target of assay [2] is T4, human Nectin 2 on CHO cells (human, UniProt Q92692 32-538).
T4 sequence: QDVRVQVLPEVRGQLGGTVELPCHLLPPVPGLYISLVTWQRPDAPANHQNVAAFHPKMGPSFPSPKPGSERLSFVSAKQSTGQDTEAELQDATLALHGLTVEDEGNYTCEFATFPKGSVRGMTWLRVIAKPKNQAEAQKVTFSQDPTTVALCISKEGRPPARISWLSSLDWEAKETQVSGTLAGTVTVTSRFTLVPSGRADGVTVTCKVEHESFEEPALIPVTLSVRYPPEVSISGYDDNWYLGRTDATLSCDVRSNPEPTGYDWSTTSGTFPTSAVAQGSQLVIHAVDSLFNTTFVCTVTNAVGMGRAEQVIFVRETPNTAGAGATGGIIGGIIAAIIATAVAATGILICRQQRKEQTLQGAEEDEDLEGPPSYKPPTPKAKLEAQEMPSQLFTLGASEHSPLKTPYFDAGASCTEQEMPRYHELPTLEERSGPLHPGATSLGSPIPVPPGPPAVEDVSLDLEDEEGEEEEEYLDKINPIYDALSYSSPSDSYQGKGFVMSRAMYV
In words: flow cytometry on CHO cells expressing human Nectin 2. The protocol: as §1, §2

Assay [3] addresses T5, huNectin4-C1C2-V5 (C1C2 construct, lacking the Ig-like V domain) (human, UniProt Q96NY8 148-510).
T5 construct: Expressed on CHO cells; also called Hu-Nectin4 IgC1C2-V5; Nectin4-C1C2-V5 sorted cells
T5 sequence: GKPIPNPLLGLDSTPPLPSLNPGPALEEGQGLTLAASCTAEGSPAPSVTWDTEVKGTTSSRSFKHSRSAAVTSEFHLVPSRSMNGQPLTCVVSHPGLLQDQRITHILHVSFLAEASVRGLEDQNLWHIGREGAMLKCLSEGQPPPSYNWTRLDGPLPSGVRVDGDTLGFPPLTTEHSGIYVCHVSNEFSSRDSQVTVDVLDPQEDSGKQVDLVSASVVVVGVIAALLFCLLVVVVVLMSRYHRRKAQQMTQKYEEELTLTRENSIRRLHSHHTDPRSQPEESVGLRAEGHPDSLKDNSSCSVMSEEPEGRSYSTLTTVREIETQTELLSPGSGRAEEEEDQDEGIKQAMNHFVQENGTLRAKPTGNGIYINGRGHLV
In words: flow cytometry on Nectin4-C1C2-V5 sorted cells.

In assay [4] the target is T6, human Nectin 1 on CHO cells (human, UniProt Q15223 31-517).
T6 sequence: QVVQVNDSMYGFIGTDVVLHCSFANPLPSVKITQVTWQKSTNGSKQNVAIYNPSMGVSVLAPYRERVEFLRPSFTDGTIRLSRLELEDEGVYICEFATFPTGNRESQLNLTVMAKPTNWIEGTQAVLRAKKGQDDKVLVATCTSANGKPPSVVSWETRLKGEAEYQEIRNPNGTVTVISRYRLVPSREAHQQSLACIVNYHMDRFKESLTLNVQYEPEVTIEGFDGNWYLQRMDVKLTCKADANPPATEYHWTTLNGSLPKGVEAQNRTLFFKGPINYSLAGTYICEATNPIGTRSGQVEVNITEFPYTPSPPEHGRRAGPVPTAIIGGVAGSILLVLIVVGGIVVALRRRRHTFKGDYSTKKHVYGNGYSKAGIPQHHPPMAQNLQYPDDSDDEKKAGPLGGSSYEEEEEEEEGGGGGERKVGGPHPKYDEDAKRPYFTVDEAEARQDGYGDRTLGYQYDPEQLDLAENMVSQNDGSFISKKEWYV
In words: flow cytometry on CHO cells expressing human Nectin 1. The protocol:
as §1, §2

For the next assay, the target named is T7, human Nectin-4 Mutant 1 (human, UniProt Q96NY8 32-510).
T7 construct: Expressed on transfected HEK-293T cells; also called S58P/G59D/Q61A/N106D/P107A
T7 chain: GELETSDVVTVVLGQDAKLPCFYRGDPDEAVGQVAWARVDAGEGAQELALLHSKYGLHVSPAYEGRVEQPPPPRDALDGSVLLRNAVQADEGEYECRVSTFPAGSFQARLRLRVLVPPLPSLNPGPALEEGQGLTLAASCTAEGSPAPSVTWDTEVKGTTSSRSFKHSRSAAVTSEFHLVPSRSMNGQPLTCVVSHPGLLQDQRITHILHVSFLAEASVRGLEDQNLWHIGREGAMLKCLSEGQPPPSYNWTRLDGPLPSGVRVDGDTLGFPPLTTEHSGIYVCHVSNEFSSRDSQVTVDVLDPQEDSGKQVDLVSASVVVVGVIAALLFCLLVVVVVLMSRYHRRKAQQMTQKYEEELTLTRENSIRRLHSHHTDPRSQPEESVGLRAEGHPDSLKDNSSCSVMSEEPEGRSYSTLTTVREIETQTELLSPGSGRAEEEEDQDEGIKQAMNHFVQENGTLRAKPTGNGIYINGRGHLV
Description: binding to HEK-293T cells transfected with the Nectin-4 mutant.

Assay [5] addresses T5, huNectin4-C1C2-V5 (C1C2 construct, …). Description: flow cytometry on huNectin4-C1C2-V5 CHO cells. Here is the method: The characterization of the binding of the antibodies on Nectin-4 domains was performed by flow cytometry using cells made to express the wild-type human Nectin-4 protein and cells made to express a modified Nectin-4 having the Ig-like C₂ type 1 and the Ig-like C₂ type 2 domains and lacking the Ig-like V domain (the C1C2 construct). The latter protein additionally bears a V5 tag for flow cytometry cell sorting, and cells were used as Nectin4-C1C2-V5 sorted cells.

Assay [6] addresses T8, monomeric huNectin4-his-BirA protein (human, UniProt Q96NY8 32-349).
T8 construct: also called Human Nectin4-His-BirA; huNectin4-BirA
T8 sequence: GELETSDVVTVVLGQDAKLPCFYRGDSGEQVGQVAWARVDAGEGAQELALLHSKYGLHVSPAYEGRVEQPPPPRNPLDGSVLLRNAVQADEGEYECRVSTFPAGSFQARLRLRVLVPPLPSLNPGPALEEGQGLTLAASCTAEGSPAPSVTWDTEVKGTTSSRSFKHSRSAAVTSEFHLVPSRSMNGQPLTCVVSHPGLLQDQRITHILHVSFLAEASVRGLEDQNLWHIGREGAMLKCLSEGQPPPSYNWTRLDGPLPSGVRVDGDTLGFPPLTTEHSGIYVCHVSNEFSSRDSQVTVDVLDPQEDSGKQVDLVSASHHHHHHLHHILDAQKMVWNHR
Description: SPR (Biacore T200), antibody captured on Protein A, monomeric huNectin4-his-BirA injected. The protocol: Antibodies were tested for binding affinity to the wild-type human Nectin-4 protein by SPR (Surface Plasmon Resonance) methods. Measurements were performed on a Biacore T200 apparatus (Biacore GE Healthcare) at 25° C. Sensorgrams were analyzed with Biacore T100 Evaluation software. A CMR Sensor Chip with immobilized Protein A at about 600 RU was used. Anti-Nectin-4 antibodies were captured onto the Protein-A chip (antibodies diluted to 1 μg/ml in HBS-EP+1× buffer and injected over 120s at 40 μL/min). […] The chip was regenerated with NaOh 10 mM 2× for 30s at 40 μl/min. The sensorgram sets were fitted using the 1:1 kinetic binding model or two state reaction model, as a function of the profile of the curves.

B1: antibody 6C11B (antibody, human IgG1, V domains shown)
VH: EVQLQQSGPELVKPGASVKISCKTSGYTFTEYTIHWVKQNHGKSLEWIGRINPKNGDIIHNQNFMGKATLTVDKSSSTAYMELRSLTSEDSAVCYCARSGYGSSYGFAYWGQGTLVTVSA
VL: DIVMTQSPTSLVVSLGQRATISCRASQSVTTPRYSYMHWYQQKPGQPPKLLIKYASNLESGVPARFSGSGSGTDFTLNIHPVEEEDTATYYCQHSWEIPYTFGGGTKLEIK
notes: also called 6CB11; CHG1-M-4N4-6C11B
As to B1, the binding result is “binds” in assay [1]; “no binding” in the assay with human PVR on CHO cells; “no binding” in the assay with human Nectin-4 Mutant 3; “no binding” in [2]; “binds” in assay [3]; “no binding” in [4].

B2: antibody N41 (antibody, V domains shown)
VH: QVQLKQSGPGLVQPSQSLSITCTVSGFSLTNYGVHWVRQSPGKGLEWLGVIWSGGSTDYNAAFISRLSISKDTSKSQVFFKMNSLQADDTAIYYCARELIHAMDNWGQGTSVTVSS
VL: DIQMTQSPASLSVSVGETVTITCRASENIYSNLAWYQQKQGNSPQLLVFAATNLADGVPSRFSGSGSGTQYSLKINSLQSEDFGTYYCQHFWGTPTFGGGTKLEIK
notes: Comparator anti-Nectin-4 antibody
As to B2, the binding result with human Nectin-4 Mutant 1 was “no binding”. For the same molecule, the binding result in [5] is “no binding”. For the same molecule, in assay [6], binding was put at a Kd of 1.5 nM; the koff (in general, a measure of how fast the partners let go of each other) amounted to 0.00087 s⁻¹; the kon – broadly, the second-order rate constant of association – came to 580000 M⁻¹ s⁻¹.

The values are drawn from patent US20240325557A1 (INNATE PHARMA, published 2024).
